These are literature values, as cited in paper PMC5808296.

Read-outs that look alike come from different tables or passages of the source.

The target of data set [1] is Aβ42 Aβ1-42 (Mus musculus) (UniProt P12023).
Data set [2] has the same target. The source holds these as a separate data set.

By Kd is commonly meant the equilibrium constant for the complex coming apart. On to C-FRHMTEQ-C peptide, for which the Kd in data set [1] is 0.545 nM.

In the case of C-IPLPFYN-C peptide, in data set [2], the Kd is 0.22 nM.
